Experimental data from patent publication US10526611.

Molecular target: full-length GALLS (GALLS-FL) fused in frame with LexA in yeast bait vector pEG202 (pE3462)
Assay: cell-based or functional assay

## LSH10 (GIP, GALLS Interacting Protein; At2g42610) expressed from the yeast two-hybrid prey vector pGAD424 (from UniProt Q9S7R3 1-177)
  β-galactosidase units (β-galactosidase units): 6
